# Source: patent publication US9222119B2, “Detection of degradative enzymes and biomolecules in bodily fluids” (The Regents of the University of California, priority 2008, dated 2015)
# diamino‑ethyl = ethylenediamine linker to Bodipy FL
# Experiments:
# Format in all cases: biochemical
# [1] = system: human pancreatic α-chymotrypsin; experiment: Detection of chymotrypsin activity in whole rat blood or 1×PBS using NCDPS substrate; settings: 1×PBS or whole rat blood, 1 h incubation, α-chymotrypsin stocks 2, 0.4, 0.08, 0 mg/ml
# Protocol: In this experiment 7 μl of 1× phosphate buffered saline (PBS) at pH 7.8 or 7 μl of whole rat blood were mixed with the following: 7 μl of 1 mg/ml Acetyl-N-[…]Bodipy FL (SEQ ID NO:26) in 1×PBS pH 7.8; 0.4 μl of 2 M CaCl2; and 0.5 μl of the following concentrations 2 mg/ml, 0.4 mg/ml, 0.08 mg/ml and 0 mg/ml of human pancreatic α-chymotrypsin. The mixtures were incubated for 1 hour and then 6 μl of sample was loaded into the wells of a 4% high resolution agarose gel. The five wells on the left-hand side were loaded with 1×PBS samples and the five wells on the right right-hand side were loaded with the whole rat blood samples. Electrophoresis was performed for 30 minutes at 80 V and then the gel was imaged using a BioDoc-It® System with a Model M-26 transilluminator (UVP, Upland, Calif.). The upper FIG. 26A show the gel before the electric field was applied and the quenching of fluorescent signal from NCDPS substrate by the blood samples can clearly be seen in the five wells on the […] side. This sensitivity-reducing quenching issue would occur for many of the current types of fluorescent enzyme assays utilizing classical fluorogenic substrates. As a result, these latter methods typically require considerable sample preparation, which is time-consuming and makes the measurements less accurate, in order to recover fluorescent signal.
# [2] = molecular target: T1, bovine pancreatic trypsin (Bos taurus, UniProt P00760); experiment: Detection of trypsin in 1×PBS buffer using NCDPS, agarose gel electrophoresis; settings: 1×PBS pH 7.8, 300 μM substrate, 1 h reaction
# T1 construct: from tissue; host or cells: bovine pancreas (lyophilized enzyme)
# T1 sequence (P00760 24-246): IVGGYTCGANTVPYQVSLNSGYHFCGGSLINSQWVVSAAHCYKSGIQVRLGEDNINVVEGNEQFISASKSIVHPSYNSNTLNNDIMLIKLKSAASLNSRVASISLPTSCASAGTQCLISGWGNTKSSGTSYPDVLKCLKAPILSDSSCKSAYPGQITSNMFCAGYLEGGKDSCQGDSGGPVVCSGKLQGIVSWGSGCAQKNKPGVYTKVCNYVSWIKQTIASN
# Protocol: (§1) In this experiment a 1 mg/ml (650 μM) stock solution of the NCDPS substrate Ac-N-[…]diamino-ethyl-Bodipy FL (SEQ ID NO:29) (MW 1537.4) was prepared by dissolving the peptide in 1× phosphate buffered saline (PBS) at pH 7.8. […] Both proteases were serially diluted in 1 mM HCl in order to obtain the desired concentrations. A solution of 486 μg/ml (316 μM) of the Ac-N-[…]diamino-ethyl-Bodipy FL peptide was prepared in 1×PBS (pH 7.8). Aliquots of 14.4 μl of the […] peptide solution (1×PBS) were mixed with 1 μl aliquots of various concentrations of the proteases or 1 ul of 1 mM HCl for the negative control, and then allowed to react for one hour. 6 μl samples containing 3 μg (300 μM) of the substrate with protease concentrations ranging from 500 nM (lanes 1-2), 100 nM (lanes 3-4), 50 nM (lanes 5-6), 30 nM (lanes 7-8), 20 nM (lanes 9-10) or 0 nM (lanes 11-12) were loaded into the wells of a 4% high resolution agarose gel run in 0.5×TBE. […] Gels were then quantified with a Storm 480 gel scanner using ImageQuant v5.2 (Molecular Dynamics, Sunnyvale, Calif.) (fluorescence mode, high sensitivity, 100 μm pixel size, 1000V photomultiplier tube) with a 450 nm excitation filter and a 520 nm long pass emission filter. […]
# [3] = molecular target: T2, bovine pancreatic α-chymotrypsin (Bos taurus, UniProt P00766); experiment: Detection of α-chymotrypsin in 1×PBS buffer using NCDPS, agarose gel electrophoresis; settings: 1×PBS pH 7.8, 300 μM substrate, 1 h reaction
# T2 construct: from tissue; host or cells: bovine pancreas (lyophilized enzyme)
# Protocol: as §1
# [4] = molecular target: T1, bovine pancreatic trypsin; experiment: Detection of trypsin in human plasma using NCDPS; settings: un-diluted human plasma, 1 h reaction
# Protocol: (§2) In this example a 1 mg/ml (650 μM) stock solution of the peptide substrate was prepared from lyophilized Ac-N-[…]diamino-ethyl-Bodipy FL (MW 1537.4) (SEQ ID NO:29) by dissolving the peptide in 1×PBS at pH 7.8. […] Both proteases were serially diluted in 1 mM HCl in order to obtain the desired concentrations. A solution of 486 μg/ml (316 μM) of the Ac-N-[…]diamino-ethyl-Bodipy FL peptide was prepared in un-diluted human plasma. Aliquots of 14.4 μl of the peptide plasma solution were mixed with 1 μl aliquots of various concentrations of the proteases or 1 ul of 1 mM HCl for the negative control and then allowed to react for one hour. Samples of about 6 μl each containing 3 μg (300 μM) of the substrate with protease concentrations that ranged from 500 nM (lanes 1-2), 100 nM (lanes 3-4), 50 nM (lanes 5-6), 30 nM (lanes 7-8), 20 nM (lanes 9-10) or 0 nM (lanes 11-12) were loaded into the wells of a 4% high resolution agarose gel in 0.5×TBE. […] Gels were then quantified with a Storm 480 gel scanner using ImageQuant v5.2 (Molecular Dynamics, Sunnyvale, Calif.) (fluorescence mode, high sensitivity, 100 μm pixel size, 1000V photomultiplier tube) with a 450 nm excitation filter and a 520 nm long pass emission filter. […]
# [5] = molecular target: T2, bovine pancreatic α-chymotrypsin; experiment: Detection of α-chymotrypsin in human plasma using NCDPS; settings: un-diluted human plasma, 1 h reaction
# Protocol: as §2
Substance,cleavage products on gel after electrophoresis (FIG. 26B) [1],detection level by inspection of gel (FIG. 20) [2],detection level by inspection of gel (FIG. 20) [3],detection level by inspection of gel (FIG. 22) [4],detection level by inspection of gel (FIG. 22) [5]
Acetyl-N-Asp-Gly-Asp-Ala-Gly-Tyr-Ala-Gly-Leu-Arg-Gly-Ala-Gly-Bodipy FL (Ac-DGDAGYAGLRGAG-{Bodipy FL}),appearance of cleavage products in the first three 1×PBS samples and in the blood samples,,,,
"Ac-N-Asp-Gly-Asp-Ala-Gly-Tyr-Ala-Gly-Leu-Arg-Gly-Ala-Gly-diamino-ethyl-Bodipy FL (Ac-DGDAGYAGLRGAG-{diamino‑ethyl-Bodipy FL}) [SEQ ID NO:29, NCDPS substrate for chymotrypsin and trypsin, net charge −1]",,about 30 nM,about 20 nM,about 20 nM,about 20 nM
